Experimental data: the supplement of paper PMC10201428
± gives the standard deviation of the averaged measurements.

B1: library; a variant is named by its letters at N, in order (parent)
chain: AATGTTGTTGATGCAACCATAAAGTGATATTTAATAATTATTTATAATCAGCAACTTAACCACAAAACAACCATATATTGATATNTCACAAAACAACCATAANTTGATATTTTTGTGAATCGAGTATTTCAGCAAAACTACTGCAGTAAGAA

How the values were obtained:
[1] = variants of: B1; test: relative integration efficiency (T-LR orientation) vs wild-type transposon end (log2 (normalized fold change)); transposon end mutated: left end; higher = more efficient transposition; conditions: with VchCAST RNA-guided transposition machinery (E. coli BL21(DE3) host, lacZ target)
Outline: (§1)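 In E. coli BL21(DE3), a T7-driven effector plasmid was paired with a pUC57 mini-transposon donor containing 1549 left-end or 1849 right-end barcoded transposon variants. Cells grew on plates with 0.1 mM IPTG at 37°C for 18 h. Relative integration efficiency was derived from Illumina reads of genomic integration junctions against input plasmids, as a log-transformed output/input barcode fold change normalised to reference barcodes.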

[2] = variants of: B1; test: relative integration efficiency (T-RL orientation) vs wild-type transposon end (log2 (normalized fold change)); transposon end mutated: left end; higher = more efficient transposition; conditions: with VchCAST RNA-guided transposition machinery (E. coli BL21(DE3) host, lacZ target)
Outline: as §1

Variant | relative integration efficiency (log2) [1] | relative integration efficiency (log2) [2]
AATGTTGTTGATGCAACCATAAAGTGATAGGGCATAATTATTTATAATCAGCAACTTAACCACAAAACAACCATATATTGATAGAGAACAAAACAACCATAAGTTGATAGGGGTGTGAATCGAGTATTTCAGCAAAACTACTGCAGTAAGAA [AG T30G T31G T32G A33C T84G T86G C87A T110G T111G T112G T113G] | -2.2 ± 1.2 | -2.54 ± 0.82
AATGTTGTTGATGCAACCATAAAGTGATATTTAATAATTATTTATAATCAGCAACTTAACCACAAAACAACCATATATTGATATCTCACAAAACAACCATAAGTTGATATTTTGTTGAATCGAGTATTTCAGCAAAACTACTGCAGTAAGAA [CG T114G G115T] | 0.781 ± 0.54 | -0.471 ± 0.32
AATGTTGTTGATGCAACCATAAAGTGATATTTAATACGGCTTTATAATCAGCAACTTAACCACAAAACAACCATATATTGATATCTCACAAAACAACCATAAGTTGATATTTTTGTGAATCGAGTATTTCAGCAAAACTACTGCAGTAAGAA [CG A37C T38G T39G A40C] | 0.21 ± 0.43 | -0.0337 ± 0.1
AATGTTGTTGATGCAACCATAAAGTGATATTTAGTAATTATTTATAATCAGCAACTTAACCACAAAACAACCATATATTGATATCTCACAAAACAACCATAAGTTGATATTTTTGTGAATCGAGTATTTCAGCAAAACTACTGCAGTAAGAA [CG A34G] | -0.187 ± 0.0028 | -0.0204 ± 0.046
AATGTTGTTGATGCAACCATAAAGTGATATTTATTAATTATTTATAATCAGCAACTTAACCACAAAACAACCATATATTGATATCTCACAAAACAACCATAAGTTGATATTTTTGTGAATCGAGTATTTCAGCAAAACTACTGCAGTAAGAA [CG A34T] | 0.848 ± 0.42 | 0.709 ± 0.11
AATGTTGTTGATGCAACCATAAAATGATAATTAATAATTATTTATAATCAGCAACTTAACCACAAAACAACCATAAGTTGATATTTTACAAAACAACCATAAAATGATAATTATGTGAATCGAGTATTTCAGCAAAACTACTGCAGTAAGAA [TA G24A T30A T76A A77G C87T T104A T110A T113A] | 0.503 ± 0.28 | -0.582 ± 0.57
AATGTTTGTGATGCAACCATAAAGTGATATTTAATAATTATTTATAATCAGCAACTTAACCACAAAACAACCATATATTGATATCTCACAAAACAACCATAAGTTGATATTTTTGTGAATCGAGTATTTCAGCAAAACTACTGCAGTAAGAA [CG G7T T8G] | < -10 | -7.23 ± 1.1
AATGTTGTTGATGCAACCATAAGTTGATATTTTATAATTATTTATAATCAGCAACTTAACCACAAAACAACCATATATTGATATCTCACAAAACAACCATATATTGATATCTCTGTGAATCGAGTATTTCAGCAAAACTACTGCAGTAAGAA [CA A23G G24T A33T A102T T111C T113C] | -0.354 ± 0.18 | -0.967 ± 0.39
AATGTTGTTGATGCCCAAATAAAGTGATATTTAATAATTATTTATAATCAGCAACTTAACCACAAAACAACCATATATTGATATCTCACAAAACAACCATAAGTTGATATTTTTGTGAATCGAGTATTTCAGCAAAACTACTGCAGTAAGAA [CG A15C A16C C17A C18A] | -2.02 ± 1.9 | -1.89 ± 0.66
AATGTTGTTGATGCAACCATAAAGTGATATTTAATAATTATTTATAATCAGCAACTTAACCACAAAACAACCATATATTGATATCTCACATAACAACCATAAGTTGATATTTTTGTGAATCGAGTATTTCAGCAAAACTACTGCAGTAAGAA [CG A91T] | -0.0651 ± 0.68 | -0.101 ± 0.084
